{"source": "patent US11253617B2", "about": "“One step 64Cu-BaBaSar-RGD2 production method” (UNIVERSITY OF SOUTHERN CALIFORNIA, priority 2017, dated 2022)", "key": {"[1]": {"details": "reference 24; cited from earlier work"}, "[2]": {"assay": "Vital signs after injection in macaque monkey", "format": "in vivo", "details": "13.1-19.7 MBq/kg, during and 24-h after PET scan", "experimental": "(§1) The PET images at 1, 5, 10, 20, 40, 60, 120, and 180 min after injection are disclosed in FIG. 4. […] The bladder content was visualized at 10 min after injection and more and more activity was accumulated in urine bladder content. […] Gallbladder uptake was not observed during the whole scan. […] The urinary bladder had the highest uptake, with 51.37%±8.73% of injected activity at 1 h post injection. The maximum uptake for the liver, and kidneys were 37.40±6.63% ID (9 min) and 26.79±4.35% ID (0.5 min) respectively."}, "U87MG glioblastoma tumor": {"tested_on": "U87MG glioblastoma tumor", "details": "cited from earlier work"}, "[3]": {"assay": "Estimated human absorbed doses (Olinda/EXM) from PET biodistribution in macaque monkey", "format": "in vivo", "experimental": "as §1\nThe mean organ doses for the human phantom were calculated with Olinda/EXM using ^64Cu-BaBaSar-RGD2 biodistribution in monkey (Table 2). The kidneys had the highest radiation-absorbed doses (108.43 μGy/MBq), followed by the bladder wall (87.07 μGy/MBq). The mean effective dose of ^64Cu-BaBaSar-RGD2 was 15.30±2.21 μSv/MBq. […] The estimated doses for […] were higher by 18% because body and organ sizes of women are smaller than those men (data not shown).\nIntegrin αvβ3-targeted radiopharmaceutical ^64Cu-BaBaSar-RGD2 has been successfully synthesized with the one-step kit method. The straightforward method greatly simplifies the production process and benefits the clinical application of ^64Cu-BaBaSar-RGD2. Human radiation dosimetry of ^64Cu-BaBaSar-RGD2 was estimated after intravenous administration in macaque monkey, by PET imaging and OLINDA/EXM calculations. The critical organs were kidneys and urinary bladder wall. The mean effective dose, determined with the male adult model, was […]. […] Therefore, ^64Cu-BaBaSar-RGD2 can safely be used in human scan for further evaluation of its performance as an integrin-targeting probe."}, "[4]": {"assay": "Blood clearance from venous blood samples during PET scan", "format": "in vivo, monkey", "experimental": "Venous blood samples were withdrawn from monkey during the PET scan. […] At 22 h after injection, the activity in the blood decreased to 0.79±0.52% ID. Based on the percentage of injected dose in blood sample, the half life of ^64Cu-BaBaSar-RGD2 in blood pool was calculated as 12.1±4.0 min (n=3)."}, "[5]": {"assay": "PET/CT biodistribution in macaque monkey", "format": "in vivo", "details": "for tissue uptake dose: monkey, iv, total radioactivity", "experimental": "FIG. 4: Decay-corrected anterior maximum-intensity projections of PET/CT at 1, 5, 10, 20, 40, 60, 120, and 180 min after injection of ^64Cu-BaBaSar-RGD2 in macaque monkey.\nas §1"}, "[6]": {"details": "in vitro and in vivo, reference 23; cited from earlier work"}, "[7]": {"details": "human phantom, Olinda/EXM, monkey biodistribution, Mean ± SD"}, "[8]": {"details": "male human phantom, Olinda/EXM, monkey biodistribution, Mean ± SD"}}, "note": "Values joined by “and” are separate entries in the source; they are usually repeats but may differ in a detail not shown here. Equal entries are not always repeated. Where two headings read alike, the source gives them in different places.", "data": [{"smiles": "OC[C@H]1OC(O)[C@H]([18F])[C@@H](O)[C@@H]1O", "note": "(stereo partly drawn) [^18F-FDG, 2-deoxy-2-[^18F]fluoro-D-glucose]", "values": [{"measurement": "Estimated dose in a whole-body PET scan", "setting": "[1]", "result": 6.23, "unit": "mSv"}]}, {"smiles": "N=C(N)NCCC[C@@H]1NC(=O)[C@H](CCCCNC(=O)c2ccc(CNC34CNCCNCC(NCc5ccc(C(=O)NCCCC[C@@H]6NC(=O)[C@@H](Cc7ccc(O)cc7)NC(=O)[C@H](CC(=O)O)NC(=O)CNC(=O)[C@H](CCCNC(=N)N)NC6=O)cc5)(CNCCNC3)CNCCNC4)cc2)NC(=O)[C@@H](Cc2ccc(O)cc2)NC(=O)[C@H](CC(=O)O)NC(=O)CNC1=O", "note": "[^64Cu-BaBaSar-RGD2, metal not drawn]", "values": [{"measurement": "Effects on vital signs (blood pressure, pulse, electrocardiogram)", "setting": "[2]", "result": "no observable effects on vital signs"}, {"measurement": "Tumor uptake", "setting": "U87MG glioblastoma tumor; U87MG glioblastoma tumor bearing mice, reference 23", "result": "high tumor uptake"}, {"measurement": "Normal organ uptake", "setting": "U87MG glioblastoma tumor; mouse, in vivo", "result": "low normal organ uptake"}, {"measurement": "Effective dose for the non-voiding model", "setting": "[3]; 925-MBq administrated into human subject", "result": 14.2, "unit": "mSv"}, {"measurement": "Mean effective dose, male adult model", "setting": "[3]; OLINDA/EXM, intravenous administration in macaque monkey", "result": "15.30±2.21", "unit": "Sv/MBq"}, {"measurement": "Estimated doses for the female human, higher than male by", "setting": "[3]; female versus male human phantom", "result": 18, "unit": "%"}, {"measurement": "Estimated human absorbed dose, Ovaries", "setting": "[3]; [7]", "result": "2.88 ± 0.44", "unit": "μGy/MBq"}, {"measurement": "Estimated human absorbed dose, Uterus", "setting": "[3]; [7]", "result": "4.16 ± 0.63", "unit": "μGy/MBq"}, {"measurement": "Effective Dose (mean)", "setting": "[3]; [8]", "result": "15.30±2.21", "unit": "μSv/MBq"}, {"measurement": "Estimated human absorbed dose, Adrenals", "setting": "[3]; [8]", "result": "3.34 ± 0.52", "unit": "μGy/MBq"}, {"measurement": "Estimated human absorbed dose, Brain", "setting": "[3]; [8]", "result": "1.27 ± 0.22", "unit": "μGy/MBq"}, {"measurement": "Estimated human absorbed dose, Breasts", "setting": "[3]; [8]", "result": "1.34 ± 0.23", "unit": "μGy/MBq"}, {"measurement": "Estimated human absorbed dose, Gall bladder Wall", "setting": "[3]; [8]", "result": "3.07 ± 0.49", "unit": "μGy/MBq"}, {"measurement": "Estimated human absorbed dose, Heart Wall", "setting": "[3]; [8]", "result": "4.39 ± 0.62", "unit": "μGy/MBq"}, {"measurement": "Estimated human absorbed dose, Kidneys", "setting": "[3]; [8]", "result": "108.43 μGy/MBq and 108.43 ± 16.41 μGy/MBq"}, {"measurement": "Estimated human absorbed dose, LLI Wall", "setting": "[3]; [8]", "result": "2.86 ± 0.44", "unit": "μGy/MBq"}, {"measurement": "Estimated human absorbed dose, Liver", "setting": "[3]; [8]", "result": "7.54 ± 1.15", "unit": "μGy/MBq"}, {"measurement": "Estimated human absorbed dose, Lungs", "setting": "[3]; [8]", "result": "1.67 ± 0.28", "unit": "μGy/MBq"}, {"measurement": "Estimated human absorbed dose, Muscle", "setting": "[3]; [8]", "result": "1.88 ± 0.31", "unit": "μGy/MBq"}, {"measurement": "Estimated human absorbed dose, Osteogenic Cells", "setting": "[3]; [8]", "result": "7.01 ± 0.91", "unit": "μGy/MBq"}, {"measurement": "Estimated human absorbed dose, Pancreas", "setting": "[3]; [8]", "result": "2.86 ± 0.45", "unit": "μGy/MBq"}, {"measurement": "Estimated human absorbed dose, Red Marrow", "setting": "[3]; [8]", "result": "9.29 ± 1.02", "unit": "μGy/MBq"}, {"measurement": "Estimated human absorbed dose, Skin", "setting": "[3]; [8]", "result": "1.38 ± 0.24", "unit": "μGy/MBq"}, {"measurement": "Estimated human absorbed dose, Small Intestine", "setting": "[3]; [8]", "result": "4.53 ± 0.68", "unit": "μGy/MBq"}, {"measurement": "Estimated human absorbed dose, Spleen", "setting": "[3]; [8]", "result": "6.78 ± 0.88", "unit": "μGy/MBq"}, {"measurement": "Estimated human absorbed dose, Stomach Wall", "setting": "[3]; [8]", "result": "2.11 ± 0.34", "unit": "μGy/MBq"}, {"measurement": "Estimated human absorbed dose, Testes", "setting": "[3]; [8]", "result": "2.03 ± 0.33", "unit": "μGy/MBq"}, {"measurement": "Estimated human absorbed dose, Thymus", "setting": "[3]; [8]", "result": "1.56 ± 0.26", "unit": "μGy/MBq"}, {"measurement": "Estimated human absorbed dose, Thyroid", "setting": "[3]; [8]", "result": "1.39 ± 0.24", "unit": "μGy/MBq"}, {"measurement": "Estimated human absorbed dose, Total Body", "setting": "[3]; [8]", "result": "2.76 ± 0.42", "unit": "μGy/MBq"}, {"measurement": "Estimated human absorbed dose, ULI Wall", "setting": "[3]; [8]", "result": "2.47 ± 0.39", "unit": "μGy/MBq"}, {"measurement": "Estimated human absorbed dose, Urinary Bladder Wall", "setting": "[3]; [8]", "result": "87.07 μGy/MBq and 87.07 ± 12.38 μGy/MBq"}, {"measurement": "Activity remaining in blood", "setting": "[4]; 3 h after injection, decay corrected", "result": "2.88±0.88", "unit": "% ID"}, {"measurement": "Activity remaining in blood (range)", "setting": "[4]; 3 h after injection, range", "result": "2.07-3.82 % ID"}, {"measurement": "Activity in the blood", "setting": "[4]; 22 h after injection", "result": "0.79±0.52", "unit": "% ID"}, {"measurement": "Clearance from the blood", "setting": "[4]; decay corrected activity per unit of blood sample", "result": "cleared rapidly from the blood"}, {"measurement": "Urinary bladder uptake", "setting": "[5]; 1 h post injection, bladder not voided (anesthesia)", "result": "51.37%±8.73%"}, {"measurement": "Activity in gallbladder, small intestine, upper and lower large intestine", "setting": "[5]; 3 h post injection", "result": "8.62%±1.41%"}, {"measurement": "Gallbladder uptake", "setting": "[5]; during the whole scan", "result": "not observed"}, {"measurement": "tissue uptake dose", "setting": "[5]; kidneys, at 0.5 min, read-out: Maximum uptake for the kidneys", "result": "26.8 ± 4.35", "unit": "%ID"}, {"measurement": "tissue uptake dose", "setting": "[5]; liver, at 9 min, read-out: Maximum uptake for the liver", "result": "37.4 ± 6.63", "unit": "%ID"}, {"measurement": "Stability", "setting": "[6]", "result": "great stability both in vitro and in vivo"}]}]}
